Measured values from patent US20260151494A1 (ARO BIOTHERAPEUTICS, published 2026).
Where a chain is given by its changes, count along the chain named.

B1: CD71-binding FN3 domain SEQ ID NO 391 (designed binder)
chain: MLPAPKNLIVSRVTEDSARLSWTAPDAAFDSFFIGYLEPQPPGEAISLYVPGSERSYDLTGLKPGTEYNVTIQGVKGGFPSDPLQAIFTT
B2: CD71-binding FN3 domain SEQ ID NO 392 (designed binder)
chain: B1 chain with I9V, S47H, Y49G, D82L, Q85V, I87T
B3: CD71-binding FN3 domain SEQ ID NO 393 (designed binder)
chain: B1 chain with I9V, S47G, Y49F, D82L, I87H
B4: CD71-binding FN3 domain SEQ ID NO 394 (designed binder)
chain: B1 chain with I9V, S47Y, Y49L, D82T, Q85E, I87S
B5: CD71-binding FN3 domain SEQ ID NO 395 (designed binder)
chain: B1 chain with I9V, A27T, S47G, Y49F, Q85S, I87F
B6: CD71-binding FN3 domain SEQ ID NO 396 (designed binder)
chain: B1 chain with I9V, S47Y, Y49T, D82M, Q85S
B7: CD71-binding FN3 domain SEQ ID NO 398 (designed binder)
chain: B1 chain with I9V, S47Y, Y49T, D82K, Q85T, I87N
B8: CD71-binding FN3 domain SEQ ID NO 399 (designed binder)
chain: B1 chain with I9V, S47T, D82T, Q85T, I87T
B9: CD71-binding FN3 domain SEQ ID NO 400 (designed binder)
chain: B1 chain with I9V, S47H, Y49F, D82G, Q85H, I87T
B10: CD71-binding FN3 domain SEQ ID NO 401 (designed binder)
chain: B1 chain with I9V, S47A, Y49W, V70I, D82M, Q85V, I87N
B11: CD71-binding FN3 domain SEQ ID NO 404 (designed binder)
chain: B1 chain with I9V, S47H, Y49L, D82E, Q85L, F88V
B12: CD71-binding FN3 domain SEQ ID NO 405 (designed binder)
chain: B1 chain with I9V, S47H, Y49W, D82L, Q85S, I87F
B13: CD71-binding FN3 domain SEQ ID NO 408 (designed binder)
chain: B1 chain with I9V, S47G, Y49W, D82M, Q85S
B14: CD71-binding FN3 domain SEQ ID NO 409 (designed binder)
chain: B1 chain with I9V, S47H, Y49F, D82N, Q85S, I87Q
B15: CD71-binding FN3 domain SEQ ID NO 410 (designed binder)
chain: B1 chain with I9V, S47A, Y49W, D82Q, Q85H, I87H
B16: CD71-binding FN3 domain SEQ ID NO 411 (designed binder)
chain: B1 chain with I9V, Y49F, D82V, Q85S, I87T
B17: CD71-binding FN3 domain SEQ ID NO 412 (designed binder)
chain: B1 chain with I9V, S47G, Y49L, D82H, Q85L, I87V
B18: CD71-binding FN3 domain SEQ ID NO 413 (designed binder)
chain: B1 chain with I9V, S47Y, Y49R, D82A, Q85H, I87H
B19: CD71-binding FN3 domain SEQ ID NO 414 (designed binder)
chain: B1 chain with I9V, S47H, D82H, Q85I, I87N
B20: CD71-binding FN3 domain SEQ ID NO 415 (designed binder)
chain: B1 chain with I9V, S47H, Y49Q, D82M, Q85S
B21: CD71-binding FN3 domain SEQ ID NO 416 (designed binder)
chain: B1 chain with I9V, S47A, D82L, Q85V, I87T
B22: CD71-binding FN3 domain SEQ ID NO 417 (designed binder)
chain: B1 chain with I9V, S47Q, Y49F, Q85V, I87S
B23: CD71-binding FN3 domain SEQ ID NO 419 (designed binder)
chain: B1 chain with I9V, S47A, Y49L, D82S, Q85N, I87Y
B24: CD71-binding FN3 domain SEQ ID NO 420 (designed binder)
chain: B1 chain with I9V, S47H, Y49Q, Q73H, F79I, D82M, Q85S, I87K
B25: CD71-binding FN3 domain SEQ ID NO 421 (designed binder)
chain: B1 chain with I9V, S47D, Y49W, D82M, Q85E, I87V
notes: The cell prints '42'
B26: CD71-binding FN3 domain SEQ ID NO 422 (designed binder)
chain: B1 chain with I9V, Y49L, D82H, Q85D, I87S
B27: CD71-binding FN3 domain SEQ ID NO 423 (designed binder)
chain: B1 chain with I9V, S47A, D82E, Q85V, I87T
B28: CD71-binding FN3 domain SEQ ID NO 424 (designed binder)
chain: B1 chain with I9V, S47H, Y49I, Q85D, I87S
B29: CD71-binding FN3 domain SEQ ID NO 425 (designed binder)
chain: B1 chain with I9V, S47G, Y49L, D82N, Q85S
B30: CD71-binding FN3 domain SEQ ID NO 426 (designed binder)
chain: B1 chain with I9V, S47F, Y49L, D82M, Q85S
B31: CD71-binding FN3 domain SEQ ID NO 427 (designed binder)
chain: B1 chain with I9V, S47H, Y49R, Q85I, I87V
B32: CD71-binding FN3 domain SEQ ID NO 428 (designed binder)
chain: B1 chain with I9V, D82N, Q85I, I87Q
B33: CD71-binding FN3 domain SEQ ID NO 430 (designed binder)
chain: B1 chain with I9V, S47D, Y49W, D82Y, Q85S, I87S
B34: CD71-binding FN3 domain SEQ ID NO 431 (designed binder)
chain: B1 chain with I9V, S47V, Y49F, D82N, Q85S, F88S
B35: CD71-binding FN3 domain SEQ ID NO 432 (designed binder)
chain: B1 chain with I9V, S47A, D82G, Q85E, I87Y
B36: CD71-binding FN3 domain SEQ ID NO 433 (designed binder)
chain: B1 chain with I9V, S47A, D82L, Q85E, I87N
B37: CD71-binding FN3 domain SEQ ID NO 434 (designed binder)
chain: B1 chain with I9V, S47G, Y49Q
B38: CD71-binding FN3 domain SEQ ID NO 435 (designed binder)
chain: B1 chain with I9V, S47A, Y49W, D82H, Q85A, I87V
B39: CD71-binding FN3 domain SEQ ID NO 436 (designed binder)
chain: B1 chain with I9V, S47H, Y49L, D82E, Q85W, I87K
B40: CD71-binding FN3 domain SEQ ID NO 437 (designed binder)
chain: B1 chain with I9V, Y49W, D82T, Q85S, I87K

What was measured:
[1] = target: T1, human apical domain of CD71 (human, UniProt P02786 189-383, limits assumed); assay: primary ELISA; signal over HSA control; on RLU: test concentration or dose not given here
T1 construct: domain: apical domain

[2] = target: T2, human CD71 extracellular domain (human, UniProt P02786 89-760); assay: primary ELISA; signal over HSA control; on RLU: test concentration or dose not given here
T2 construct: also called hCD71; CD71-ECD

[3] = target: T1, human apical domain of CD71; assay: primary ELISA; further: test concentration or dose not given here
[4] = target: T2, human CD71 extracellular domain; assay: primary ELISA; further: test concentration or dose not given here

T2 sequence (P02786 89-760): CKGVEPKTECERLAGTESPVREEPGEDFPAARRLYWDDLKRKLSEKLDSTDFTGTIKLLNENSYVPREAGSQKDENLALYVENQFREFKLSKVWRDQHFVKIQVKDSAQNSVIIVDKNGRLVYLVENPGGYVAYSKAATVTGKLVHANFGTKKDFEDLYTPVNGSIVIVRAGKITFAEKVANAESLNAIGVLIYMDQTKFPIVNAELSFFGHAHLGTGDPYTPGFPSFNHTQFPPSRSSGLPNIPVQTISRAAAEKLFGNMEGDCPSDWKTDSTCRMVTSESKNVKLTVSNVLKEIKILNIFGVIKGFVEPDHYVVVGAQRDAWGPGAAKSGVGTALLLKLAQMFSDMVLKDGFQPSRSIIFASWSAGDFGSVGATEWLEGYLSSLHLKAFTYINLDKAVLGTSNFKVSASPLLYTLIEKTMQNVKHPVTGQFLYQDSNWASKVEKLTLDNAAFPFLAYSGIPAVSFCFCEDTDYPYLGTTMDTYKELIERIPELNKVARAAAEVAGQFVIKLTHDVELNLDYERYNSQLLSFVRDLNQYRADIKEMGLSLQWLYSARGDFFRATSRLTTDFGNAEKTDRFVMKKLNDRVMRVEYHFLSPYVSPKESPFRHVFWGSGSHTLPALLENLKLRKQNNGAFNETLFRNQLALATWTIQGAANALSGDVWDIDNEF
T1 sequence (P02786 189-383 limits assumed): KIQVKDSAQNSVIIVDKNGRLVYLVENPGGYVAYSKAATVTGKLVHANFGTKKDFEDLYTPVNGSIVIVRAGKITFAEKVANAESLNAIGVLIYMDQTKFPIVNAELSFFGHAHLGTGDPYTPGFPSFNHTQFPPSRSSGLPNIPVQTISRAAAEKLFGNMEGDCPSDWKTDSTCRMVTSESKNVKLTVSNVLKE

Row | Binder | Apical domain:HSA [1] [ratio] | hCD71:HSA [2] [ratio] | RLU [3] [RLU] | RLU [4] [RLU]
1 | B1 | 163 | 108 | 4.19e+06 | 2.78e+06
2 | B2 | 194 | 237 | 3.9e+06 | 4.77e+06
3 | B3 | 58 | 42 | 6.09e+06 | 4.39e+06
4 | B4 | 430 | 218 | 5.66e+06 | 2.86e+06
5 | B5 | 92 | 72 | 6.59e+06 | 5.11e+06
6 | B6 | 183 | 165 | 2.47e+06 | 2.23e+06
7 | B7 | 129 | 132 | 2.07e+06 | 2.12e+06
8 | B8 | 255 | 297 | 5.04e+06 | 5.88e+06
9 | B9 | 163 | 141 | 6.54e+06 | 5.67e+06
10 | B10 | 42 | 41 | 5.82e+06 | 5.64e+06
11 | B11 | 146 | 122 | 5.66e+06 | 4.72e+06
12 | B12 | 193 | 108 | 3.47e+06 | 1.95e+06
13 | B13 | 165 | 116 | 3.23e+06 | 2.26e+06
14 | B14 | 284 | 225 | 6.2e+06 | 4.91e+06
15 | B15 | 379 | 46 | 3.2e+06 | 3.9e+06
16 | B16 | 318 | 261 | 6.36e+06 | 5.23e+06
17 | B17 | 153 | 112 | 6e+06 | 4.37e+06
18 | B18 | 370 | 287 | 4.98e+06 | 3.86e+06
19 | B19 | 79 | 86 | 6.18e+06 | 6.71e+06
20 | B20 | 516 | 501 | 3.61e+06 | 3.51e+06

Row | Binder | Apical domain:HSA [1] [ratio] | hCD71:HSA [2] [ratio] | RLU [3] [RLU] | RLU [4] [RLU]
21 | B21 | 52 | 54 | 6.32e+06 | 6.6e+06
22 | B22 | 417 | 305 | 6.17e+06 | 4.51e+06
23 | B23 | 269 | 211 | 4.59e+06 | 3.6e+06
24 | B24 | 495 | 402 | 3.93e+06 | 3.2e+06
25 | B25 | 398 | 167 | 4.2e+06 | 1.76e+06
26 | B26 | 340 | 171 | 5.88e+06 | 2.97e+06
27 | B27 | 57 | 58 | 6.56e+06 | 6.63e+06
28 | B28 | 155 | 117 | 5.16e+06 | 3.9e+06
29 | B29 | 347 | 247 | 6.23e+06 | 4.44e+06
30 | B30 | 176 | 13 | 5.95e+06 | 4.43e+06
31 | B31 | 612 | 392 | 3.52e+06 | 2.25e+06
32 | B32 | 186 | 195 | 5.9e+06 | 6.19e+06
33 | B33 | 124 | 126 | 3.58e+06 | 3.64e+06
34 | B34 | 88 | 89 | 4.35e+06 | 4.4e+06
35 | B35 | 79 | 94 | 3.11e+06 | 3.73e+06
36 | B36 | 184 | 169 | 3.57e+06 | 3.26e+06
37 | B37 | 403 | 313 | 4.03e+06 | 3.13e+06
38 | B38 | 319 | 210 | 5.5e+06 | 3.62e+06
39 | B39 | 288 | 227 | 5.66e+06 | 4.46e+06
40 | B40 | 147 | 168 | 2.82e+06 | 3.22e+06
